According to patent publication US9221871 (NEW YORK UNIVERSITY, dated 2015):

Target: T1, His-tagged human Bcl-xL (human, UniProt Q07817 1-212)
T1 construct: Bought protein; also called Hiss-tagged human Bcl-xL; not shown: His tag
Assay: fluorescence polarization competition against fl-Bak, Kd by regression analysis
Description: The anisotropy experiments were performed with a DTX 880 Multimode Detector (Beckman) at 4° C., with excitation and emission wavelengths of 485 and 525 nm, respectively.

T1 sequence (Q07817 1-212): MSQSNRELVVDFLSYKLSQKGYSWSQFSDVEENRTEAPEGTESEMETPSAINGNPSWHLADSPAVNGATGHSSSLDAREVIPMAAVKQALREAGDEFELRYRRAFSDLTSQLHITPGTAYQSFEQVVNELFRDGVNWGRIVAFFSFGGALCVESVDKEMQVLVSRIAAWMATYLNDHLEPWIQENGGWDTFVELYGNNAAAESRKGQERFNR

Kd: 325 nM
B1: artificial Bak BH3 α-helix 10a (hydrogen bond surrogate, HBS) (peptide)
chain: QVGRQLAIIGDDINR
modifications: not fully specified; N-terminal Gly-72 replaced by a 4-pentenoic acid residue (alkene-bearing glycine mimic); Gly-75 is N-allyl-glycine; the two olefins are joined by ring-closing metathesis (carbon-carbon hydrogen bond surrogate, mixture of cis and trans alkene isomers); C-terminal amide
